Test results: patent US20240043563A1

Legend:
[1] = target: cynomolgus monkey MASP-2 of cynomolgus monkey serum (cynomolgus monkey); test: cell-based or functional assay
[2] = target: Fc-hMASP-2A-CCS (human) [IgG part: P01857]; test: ELISA according to Example 5, plate coated with Fc-hMASP-2A-CCS
Sequence of Fc-hMASP-2A-CCS (human) [IgG part: P01857] (P01857 other isoform, or with tags, fused parts or gaps limits assumed, form in doubt): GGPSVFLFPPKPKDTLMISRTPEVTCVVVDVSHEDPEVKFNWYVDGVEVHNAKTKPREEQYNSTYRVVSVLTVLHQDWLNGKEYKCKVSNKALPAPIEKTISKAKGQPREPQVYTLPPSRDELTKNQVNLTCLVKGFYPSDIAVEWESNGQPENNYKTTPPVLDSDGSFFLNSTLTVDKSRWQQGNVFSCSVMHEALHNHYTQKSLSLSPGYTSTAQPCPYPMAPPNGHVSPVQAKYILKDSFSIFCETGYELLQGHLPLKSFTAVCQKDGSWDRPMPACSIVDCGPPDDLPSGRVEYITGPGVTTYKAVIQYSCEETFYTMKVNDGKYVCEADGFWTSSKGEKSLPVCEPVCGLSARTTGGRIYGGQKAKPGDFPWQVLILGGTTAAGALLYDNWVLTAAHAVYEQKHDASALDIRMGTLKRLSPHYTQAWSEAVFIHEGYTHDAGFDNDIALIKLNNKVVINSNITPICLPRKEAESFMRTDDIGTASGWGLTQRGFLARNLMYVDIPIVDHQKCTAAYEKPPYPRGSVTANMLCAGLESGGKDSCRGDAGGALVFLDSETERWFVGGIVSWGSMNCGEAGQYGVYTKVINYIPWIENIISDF

IC50 of inhibition of MASP-2-catalyzed C4 cleavage in 90% cynomolgus monkey serum [1]: 94 nM | EC50 [2]: 0.227 nM
Substance: Narsoplimab (antibody)
